Measured values: article PMC9570423
pKd: −log10 of the molar value.

Columns and labels:
[1] = biological target: PagRBc, PagR homologue (ArsR/SmtB family transcription factor) of emetic B. cereus F4810/72, encoded on pCER270 (Bacillus cereus F4810/72 (emetic reference strain)); test: two-hybrid
[2] = tested on: PagRBa (PagR) (Bacillus anthracis Sterne, plasmid pXO1); test: EMSA
[3] = tested on: PagRBc (Bacillus cereus F4810/72 (AH187), plasmid pCER270); test: EMSA
[4] = tested on: PagR1Bc (Bacillus cereus F4810/72 (AH187), plasmid pCER270); test: EMSA

| Substance | fold of self-interaction (β-galactosidase activity) against the self-interaction of PagR1Bc [1] [fold] | pKd [2] | pKd [3] | pKd [4] |
| --- | --- | --- | --- | --- |
| PagRBc, PagR homologue (ArsR/SmtB family transcription factor) of emetic B. cereus F4810/72, encoded on pCER270 (natural protein) | 1.75 |  |  |  |
| cesP main promoter (cesPII), 523 bp |  | 7.60 | 7.60 | 6.82 |
